{"source": "patent US20050260166", "about": "(Phytovation B.V., published 2005)", "binders": {"B1": {"name": "GL3 luciferase siRNA (dsRNA)", "RNA 1": "CUUACGCUGAGUACUUCGATT", "RNA 2": "UCGAAGUACUCAGCGUAAGTT", "modifications": "3'-terminal TT of each strand are deoxynucleotides"}}, "target": "NS1 (Influenza A virus (A/PR/8/34), UniProt P03496 P03496:1-230)", "sequence (P03496 whole entry, one chain of several)": "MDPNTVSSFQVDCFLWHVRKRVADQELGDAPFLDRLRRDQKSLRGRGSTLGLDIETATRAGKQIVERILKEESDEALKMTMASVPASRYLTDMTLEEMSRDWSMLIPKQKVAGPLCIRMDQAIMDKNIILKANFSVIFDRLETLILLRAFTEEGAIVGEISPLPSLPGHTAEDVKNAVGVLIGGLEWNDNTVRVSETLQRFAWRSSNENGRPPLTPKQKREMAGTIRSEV", "experiment": "EMSA; 2 pM siRNA with 0-200 pM protein as printed; on ice 20 min; native 5% PAGE", "conditions": "tags: N-terminal His tag (pQE31, Qiagen); label: 5'-33P; 19-bp duplex with 3' dTdT overhangs"}
{"binder": "B1", "values": [{"measurement": "binding result", "result": "binds"}]}
